According to patent US20250136650A1, “COMPOSITIONS AND METHODS FOR DNA BINDING AND TRANSCRIPTIONAL REGULATION” (THE UNIVERSITY OF CHICAGO, priority 2021, published 2025):
Substitutions are numbered along the chain they refer to. Entries after “also recorded” stand apart in the source; their conditions may differ. *1 amine or outer side, *2 acyl side, *3 side chain or, on linkers, in order; H or OH if unused. Bridges are numbered along the chain shown (N, C = ends). Roman numbers before positions name the chains, in order. [ ]: non-standard residue; d: D form. X1 = O=C1CC([*:1])C(=O)N1CC(=O)[*:2]; S5 = C=CCCC[C@](C)(N)C(=O)O

Legend:
[1] = system: T1, STR22 (XBP1-derived stapled bZIP dimer) (synthetic (human XBP1)); test: cell_activity; conditions: +/-3.5; inhibition of XBP1s-induced luciferase in HeLa, 24 h
T1 sequence 1: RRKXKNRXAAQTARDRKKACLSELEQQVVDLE
T1 sequence 2: T1 sequence 1 with C20R, E25X

[2] = system: FJSTR72 (Fos/Jun-derived stapled bZIP dimer) (synthetic (human c-Fos/c-Jun)); test: EMSA
Ebox site = test: EMSA, binding to Ebox site
From the text: (§1) bZIP transcriptional repressors FJSTR7 (shown in FIGS. 42 and 45), FJSTR71 (shown in FIGS. 52 and 53), and FJSTR72 (shown in FIGS. 52 and 54), were generated and tested.

cells = test: Fluorescent microscopy of cell penetration by FJSTRs; format: cell-based; conditions: FJSTR7 and FJSTR72 at 5 μM, FJSTR71 at 2 μM
From the text: as §1

MC38 tumors = test: Subcutaneous MC38 tumor model; format: in vivo; conditions: MC38-bearing mouse, intratumoral
AP-1 site = test: EMSA, direct binding to AP-1 DNA probe
From the text: The DNA binding dimer STR22 (shown in FIG. 21 and FIG. 27) was synthesized. STR22 was subjected to EMSA to measure binding to either the UPR element (UPRE) or AP-1 binding site (AP-1).
as §1
Electrophoretic Mobility Shift Assays (EMSAs): For direct DNA binding experiments, STRs were serially diluted at 10× concentration in water and then 1 μL of STR solution was added to 9 μL of 5 nM IRD700-labeled DNA probe bearing either a UPRE or AP-1 motif in a final 1×binding buffer (20 mM HEPES pH 8.0, 150 mM NaCl, 5% glycerol, 1 mM EDTA, 2 mM MgCl2, 0.5 mg/mL BSA, 1 mM DTT, 0.05% NP-40). Samples were incubated for 1 hr at RT. 5 μL of each reaction was loaded on an 8% acrylamide, 0.5×TBE gel equilibrated to 4° C. Samples were resolved for 60 min at 110 V and 4° C. with 0.5×TBE+1 mM MgCl2 running buffer. Gels were pre-run at 110 V for 15 min prior to sample loading. For competition experiments, 30 or 60 nM STRs and 5 nM labeled UPRE probe were incubated with 0, 7.8, 13, 21.6, 36, 60 or 100 nM unlabeled competitor oligo for 1 hr at RT. […] ImageJ was used to quantify band intensity and the fraction of bound DNA was calculated by dividing the band intensity of bound DNA by the band intensity of free DNA from the vehicle treated lane. […]

[3] = system: T1, STR22 (XBP1-derived stapled bZIP dimer) (synthetic (human XBP1)); test: competition; conditions: EMSA competition with unlabeled UPRE against 5 nM labeled UPRE
[4] = system: T1, STR22 (XBP1-derived stapled bZIP dimer) (synthetic (human XBP1)); test: EMSA; conditions: 20 mM HEPES pH 8.0, 150 mM NaCl, 2 mM MgCl2, RT 1 h; 14.17 nM reported in Example 4 (FIG. 2)
[5] = target: T2, STR4 (XBP1-derived unstapled bZIP dimer, Met-to-Leu) (synthetic (human XBP1)) (UniProt P17861+P17861); test: EMSA; conditions: 20 mM HEPES pH 8.0, 150 mM NaCl, 2 mM MgCl2, RT 1 h
T2 sequence 1: T1 sequence 1 with X4L, X8V
T2 sequence 2: T1 sequence 1 with X4L, X8V, C20R, E25X

## 3xUPRE luciferase reporter
[1]
  IC50: 7400 nM

## AP-1 site probe (FJSTR)
[2]
  Kd: 12 nM

## I: Ac-IRRERNKMAAAKSRNRRRECI[S5]ELQ[S5]EIEQLE-NH2 / II: Ac-RKRMRNRIAASKSRKRKLERI[S5]RLK[S5]KIKTLK-NH2 (linker I:20-II:25 via X1; staple (Z) I:22-I:26, II:22-II:26) [FJSTR72]
Ebox site
  binding to Ebox site: does not bind to the Ebox site
cells
  penetration of cells: penetration; also recorded: capable of entering cells
MC38 tumors
  tumor growth: reduces tumor growth
AP-1 site
  Kd: 12 nM

## TGACGTGG (double strand) [UPRE consensus competitor (unlabeled)]
[3]
  Ki: 28.6 nM

## TGACGTGG (double strand) [UPRE consensus probe]
[4]
  Kd: 11 nM
[5]
  Kd: 49 nM
